Among the data in publication PMC6277972 are stoichiometry N values, retold here.

The target in this assay is P74-26 gp87 (Head Decoration Protein gp87 from Thermus phage P74-26) (Thermus bacteriophage P74-26). Put plainly: SEC-MALS. In general terms: Size exclusion chromatography separates by hydrodynamic size, large species first.

Broadly, the stoichiometry N is a count of units in the complex or per binding partner. Consider “P74-26 gp87 (Head Decoration Protein gp87 from Thermus phage P74-26) (natural protein)”, for which the stoichiometry N was 3.
